This data set deals with TDP-43 (His-TDP-43 wild type) (UniProt Q13148 1-414). The data set can be described thus: EMSA; EMSA: LightShift Chemiluminescent RNA EMSA Kit (Thermo), per manufacturer; buffer, salt, pH and temperature not stated. Particulars: protein: recombinant; tags: His tag; text says C-terminal (pEASY-E2); label: biotin. Background: A gel shift assay detects complexes by their altered migration in electrophoresis.
Chain of TDP-43 (His-TDP-43 wild type) (Q13148 whole entry): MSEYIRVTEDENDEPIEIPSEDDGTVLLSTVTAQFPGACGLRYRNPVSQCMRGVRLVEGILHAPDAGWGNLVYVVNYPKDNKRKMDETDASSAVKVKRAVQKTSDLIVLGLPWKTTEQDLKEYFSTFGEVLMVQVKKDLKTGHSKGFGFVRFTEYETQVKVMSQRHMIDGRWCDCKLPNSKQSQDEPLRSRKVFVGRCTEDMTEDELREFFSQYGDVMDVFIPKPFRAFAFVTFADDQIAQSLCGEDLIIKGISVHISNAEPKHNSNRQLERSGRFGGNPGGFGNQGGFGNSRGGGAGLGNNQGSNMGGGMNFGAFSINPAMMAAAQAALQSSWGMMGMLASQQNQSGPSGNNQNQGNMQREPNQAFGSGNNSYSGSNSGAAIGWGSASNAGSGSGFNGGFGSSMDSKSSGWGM

On to CACGCUCAUGCACACACCCACA (ssRNA) [miR-574-3p], for which the binding result is “no binding”.

Turning to AUGCACCUGGGCAAGGAUUCUG (ssRNA) [miR-500a-3p], the binding result is reported as “binds”.

In the case of AGCUCGGUCUGAGGCCCCUCAGU (ssRNA) [miR-423-3p], the binding result is “binds”.

Source of the values: publication PMC6160384, “TDP-43 regulates cancer-associated microRNAs”.
